What was measured:
Test in all cases: SPR; BIAcore 3000, 25 °C; PD-L1-Ig or PD-L2-Ig immobilized on CM5 chip by amine coupling; soluble monomeric PD-1 or mutants (0.01–100 μM) injected at 20 μl/min; equilibrium Kd, 1:1 Langmuir model
Conditions in all cases: both partners purified
[1] = molecular target: T1, human PD-L2 Ig fusion protein (human, UniProt Q9BQ51 20-220)
T1 construct: characterized by SEC prior to use; also called huPD-L2; B7-DC; source: bought: R&D Systems
T1 sequence (looked up): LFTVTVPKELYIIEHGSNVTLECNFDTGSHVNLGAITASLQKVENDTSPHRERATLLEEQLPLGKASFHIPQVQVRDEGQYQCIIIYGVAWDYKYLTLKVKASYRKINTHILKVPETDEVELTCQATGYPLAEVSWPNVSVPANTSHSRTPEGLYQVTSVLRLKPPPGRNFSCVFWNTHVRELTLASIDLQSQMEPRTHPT

[2] = molecular target: T2, mouse PD-L2 Ig fusion protein (mouse, UniProt Q9WUL5 20-221)
T2 construct: mouse PD-L2 part of a bought Ig fusion protein; also called mPD-L2; murine PD-L2-Ig; source: bought: R&D Systems
T2 sequence (looked up): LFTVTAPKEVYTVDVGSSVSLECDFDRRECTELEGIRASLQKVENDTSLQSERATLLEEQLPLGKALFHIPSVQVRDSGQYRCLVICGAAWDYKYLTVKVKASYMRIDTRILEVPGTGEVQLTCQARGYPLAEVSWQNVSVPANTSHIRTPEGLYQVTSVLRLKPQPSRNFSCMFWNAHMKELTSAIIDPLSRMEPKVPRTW

[3] = molecular target: T3, human PD-L1 Ig fusion protein (human, UniProt Q9NZQ7 19-238)
T3 construct: characterized by SEC prior to use; detected on cells with anti-human IgG Fcγ-specific F(ab')2; also called huPD-L1; B7-H1; source: bought: R&D Systems

[4] = molecular target: T4, mouse PD-L1 Ig fusion protein (mouse, UniProt Q9EP73 19-239)
T4 construct: mouse PD-L1 part of a bought Ig fusion protein; also called mPD-L1; murine PD-L1-Ig; source: bought: R&D Systems
T4 sequence (Q9EP73 19-239): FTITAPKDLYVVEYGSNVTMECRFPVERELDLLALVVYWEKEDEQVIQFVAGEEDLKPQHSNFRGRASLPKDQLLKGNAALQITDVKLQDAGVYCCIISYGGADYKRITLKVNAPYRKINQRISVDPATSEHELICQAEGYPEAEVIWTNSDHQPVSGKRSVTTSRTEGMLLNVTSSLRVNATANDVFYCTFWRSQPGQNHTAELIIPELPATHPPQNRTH

T3 sequence (Q9NZQ7 19-238): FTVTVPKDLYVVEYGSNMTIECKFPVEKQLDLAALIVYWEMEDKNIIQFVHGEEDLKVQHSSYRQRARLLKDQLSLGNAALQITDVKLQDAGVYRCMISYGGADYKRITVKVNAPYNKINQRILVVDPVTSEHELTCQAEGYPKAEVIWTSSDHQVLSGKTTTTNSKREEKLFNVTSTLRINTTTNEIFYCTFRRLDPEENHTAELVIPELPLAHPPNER

B1: mouse PD-1 A132L mutant (soluble, monomeric) (domain or fragment)
chain: SLTFYPAWLTVSEGANATFTCSLSNWSEDLMLNWNRLSPSNQTEKQAAFCNGLSQPVQDARFQIIQLPNRHDFHMNILDTRRNDSGIYLCGAISLHPKLKIEESPGAELVVTERILE
notes: the same molecule is used for the SPR analyte and for the crystallised complexes (PDB 3SBW, 3RNK, 3BP6); also called mA132L; mouse analog of A132L
- Kd [1]: 1180 nM
- Kd [2]: 470 nM
- Kd [3]: 480 nM
- Kd [4]: 2780 nM

— publication PMC5360572 (EBioMedicine, 2017)
